Results on eleven sequences are retold here after a protein production outcome set (Wang et al. 2014).

This data set in a line: label from the status in PepcDB records.
Take “MRRSDLHGTSIEIERKNVGERRYITGFDGLRVMALLGVIFYHLMPFTVPGGYLGVPIFFAVSGYLITDIFIQEWDRTGKIKLGSFYIRRLRRLYPTLVMVLVTSTAYMTLFAQNLLSHIRNIIWTNLVFVYNWWLVNNGQSYFDRYNGESPFTHLWYLSVLAQYYFIWPLILIVLLKIFGERRVQASGILFSLSIISSMLMTILYHPDTVNRVYYGSDTRVAPFLIGAALAFIWPSTRLKKALNARTNLIANILGGILILVMGITFFTMPGTTATPYYGGIFIFSILAVLMIAIIAHPSFMWNRLLTNPVFKWLGSRSYGIYMYQLPVMIFYEQKVTNIAAHPVLNTLAPLVIILVISELSYRYIEIPLAKFDYRQTFALLKKIFDLKSNLQWRRYLAIPAVLVVLIALFGAVTSPEKVVQKTDGLQTKLAKNSKEADKKNKEALEKQKETSAAKTKQKKAKLTKQEKEIAKKYQLTDQEMKFAAVTPLTGVGDSVLEDTGADLQEIFPTAYMSSKVGRQVDEAPGIIAELKRQKTLSDNVLINLGANGPISDKDVKAVEDAVGSKRHIFWVNVHVPTKTWEGSVNKTLDKATKQYKNLTVIDWFTPSKNQPGWFYGDYVHPNPDGSKQYATIVAKKIIKTLNK”: the protein production result is “failed”.
As to “MINYKKKIAALMLLATCLSGCSYDLKDLQHLKSKSSFDTVGIKILCEHKKYSEAMKQIDDYLKKHPDDKVALSEKGYVLVSQDKNEDGLLVLLKVNDKYPNYDVTLNNISWAYNNLKMYKLANKYADLALKQTPNSSEELSNKGTALFGLKNYKAAEKYYDKALEKKSTDKVAIWGKALSLYKEKSYSKSLTYFKKYVIVDSSDIQASYYMEKCYIALNDVDGAIKEFKSDIIADPKNKGNYFALGDMYRKKTDYSSALSCYDTLSEIDPEDPEIYFQKAICLVKSGDKDGACENLKLTLSYDSEYVSDIEEEPAFDALKDYDKFKEILNSK”, the protein production entry is listed as “failed”.
For “MGRSAVYTILTTGYVGSTGPGVAATVSYVADGGRHVVFDPGMVASRDHILGPLAELGLGPDDITDVVLSHHHPDNTMNVGLFGRATVHDHKVEYLGDQWRNRDAEGYELTPSLRLIRTPGHSLEDITLLAGTDTGVVAFAGDLWWHSDGPADDPVAPDREVLRASRLRVLAAADLIVPGHGSPLEHHHHHH”, the protein production result is recorded as “failed”.
On to “EIESRELADIPVLHAYPVGQKDTPLPCVIFYHGFTSSSLVYSYFAVALAQAGLRVIMPDAPDHGSRFSGDAARRLNQFWQILLQSMQEFTTLRAAIAEENWLRDDRLAVGGASMGAMTALGITARHPTIKCTASMMGSGYFTSLARSLFPPLIPETAAQQNEFNNIVAPLAEWEATNHLEQLGDRPLLLWHGLDDDVVPADESLRLQQALSETGRDKLLTCSWQPGVRHRITPEALDAAVTFFLQHL”, for which the protein production entry is “failed”.
As for “MSLERNYEESALFEHQFWLKVLTDHAQFLLDALAPKEKEDIKKATYFVETFTNLLNKVRNVNLMAFSKEAEQAAKEIRAFKLNIIQKQLEGKITIHFTPTFINHMVNEVEEYIAVLEFLKKGEVPPVFHELHYHLVWLTDAAGHAGSISGGLDLVEKRLKEKSEEFTKHFEQFYLKAVEMTGYLRTELHHFPALKKFTKDVSLELKLFSHFLHEVEELELSNEVLSVLSARMADHMAREECYYLLKLAQSSGLEMPKCNPLEGHHHHHH”, the entry is “not failed”; as for “MASYHARQRDPLLDQNMQAMLERRGRELLGIGLLIVAFLFMLILGTYSPEDPGWMVATDEPAQNALGRIGAAISSTLMIIAGKGSWGLPIVAGAWGARFLLHRGEERALGRIVFAVIAIALGSIYAATHVPGSEWTHSFGLGGLFGDTVLGALLEILPLPAAYGLKLLSLLVGGGLVAMGLFVCGFDLRELRQVTQFLLVGLVVTYNAALQLAGRGSVQAAQLMQEKIRAHREGRAAVDAAAVRGEARAEAMPRPRSRFREPEPEPEPAPRMGFLSRLRAQAPEDDPEPVIEEAAWGRPATLRADTTRPAALRSEGLRAEPRHVEPAPAPAQPRTGLLARMPQIIRRVTDPEAELVEHALSDAAANAEGPTEDRIKARINDVIRSRVRQSTGPLSPIAAAIARREPPMARRRSGPAPMVATRRAPMELPPEPPVVAGAGEKIRFASGMVASRMPGAATARLAVSALEADAAPAHAPRLMAEAYDAYEACETGEPILTAREQLAYADEDEAAAYDEAYAAEEEVESYAAEEAAWLPHEDFDDSTDWAPEPAAPAAPMMAPAMAPKPAAAPAARAPAVRPPEAQPKPRFEEQETHYELPPLSLLACPSTIVRNTLSVDALKENARMLESVLEDYGVKGEIVDAQAGPVVTLYELEPAPGLKASRVIGLADDIARSMSALSARVSTVPGRTVIGIELPNVSREKVILREILAARDFGDSSMRLPLALGKDIAGRPVVANLAKMPHLLIAGTTGSGKSVAINTMILSLLYKLTPEECRLIMIDPKMLELSVYDGIPHLLSPVVTDPKKAVVALKWVVGEMEERYRKMSKLGVRNIEGYNGRVSEALEKGEMFKRTIQTGFDEDTGEPVFETEDLQPVRLPFIVVVVDEMADLMMVAGKEIEACIQRLAQMARASGIHLIMATQRPSVDVITGTIKANFPTRISFQVTSKIDSRTILGEQGAEQLLGMGDMLYMAGGAKITRIHGPFVSDEEVEEIVNHLKSFGPPKYMSGVVEGPEDDRADDIDAVLGLGGNTDSEDALYDQAVAIVAKDRKCSTSYIQRKLGIGYNKAARLVEQMEEQGVVTAANHVGKREILLPEQ”, “failed”.
With “MTVSDPAGPRCFCRDCLVDLDMGVRRCSACGSPRLVRHRALSSLTIAHIDCDAFYATVEKRDNPDIADKPVIIGGGKRGVVSAACYIARTYGVRSAMPMFKALDACPHAIVIRPDMAKYVRVGREVRQAMQALTPLVEPLSIDEAFLDLSGTERVHGMIPAKVLARFARNIERDIGISVSVGLSCNKFLAKIASDLDKPRGFAALDQEEARLMLASRPVGFIFGVGPATQERLVQRGFRIIADLQKADEIEMMRQFPSDGRRLWRLARGIDDRRVEPDRGAKTISSETTFETDIRDFATLEKILWRLCEKTSSRLKSSELAGSTVTLKLKTADFRQRTRSQSIAAPTQLAAKIFSICREMLAKEIDGTAFRLMGAGVSALREGSPADDTDMLDRRAAHAERAVDSLRKKFGNSAVIRGIAYDGPETGQQE”, the protein production result is listed as “failed”.
To “MVLKAFFPTCCVSTDSGLLVGRWVPEQSSAVVLAVLHFPFIPIQVKQLLAQVRQASQVGVAVLGTWCHCRQEPEESLGRFLESLGAVFPHEPWLRLCRERGGTFWSCEATHRQAPTAPGAPGEDQVMLIFYDQRQVLLSQLHLPTVLPDRQAGATTASTGGLAAVFDTVARSEVLFRSDRFDEGPVRLSHWQSEGVEASILAELARRASGPICLLLASLLSLVSAVSACRVFKLWPLSFLGSKLSTCEQLRHRLEHLTLIFSTRKAENPAQLMRKANTVASVLLDVALGLMLLSWLHGRSRIGHLADALVPVADHVAEELQHLLQWLMGAPAGLKMNRALDQVLGRFFLYHIHLWISYIHLMSPFVEHILWHVGLSACLGLTVALSLLSDIIALLTFHIYCFYVYGARLYCLKIHGLSSLWRLFRGKKWNVLRQRVDSCSYDLDQLFIGTLLFTILLFLLPTTALYYLVFTLLRLLVVAVQGLIHLLVDLINSLPLYSLGLRLCRPYRLADKPTALQPRGAHLPPPQLWLPPQALLGRPVPQAVPWGAHLPLEAERGQAGLRELLARLAPPHGHSQPSALPGWHQLSWRMSCALWTLLCAPEHGRPCYHTLGLEVIGSEQMWGWPARLAALHHWHCLPWDPLPTCCGHHGGEHSNPRCPEHCPMPTLCTQVQRVRPPQQPQVEGWSPWGLPSGSALAVGVEGPCQDEPPSPRHPLAPSAEQHPASGGLKQSLTPVPSGPGPSLPEPHGVYLRMFPGEVAL” belongs “failed”; to “MIVRRTIDKDELKELPKTVFPGRIYVIQSEAETEKAVAYLQSRPVIGIDSETRPSFTKGQSHKVALLQISSEECCFLFRLNMTGLTQPLVDLLENPAVIKVGLSLKDDFMMLHKRAPFTQQSCIELQDYVRQFGIQDKSLQKIYAILFKEKISKSQRLSNWEADVLSDGQKQYAATDAWACLNIYNLLQELKQTGDWEVSPLTATVSPAEEVISNKISD”, “failed”.
“MVGRDNVENTAMGEALSPSQISGRVDAVWGNPMAWEAAGWQWERLPAIRRMVNRHVTGDEAIDPLSWFFQRVAKDQTLPVRRALVLACGAGGLERQLISQGWVSEVVAVDLSPGALAAARDAARQAGISGIDYRQADMNALDVEGPFDLAVGSSALHHCENLEGIFAVVRRVLVPGGWFFLNDYIGPNRLQYDAAQVLEVNRLLQCLPDPLVMNAAGFSRRGFRPASLAEVIAFDPSEAPRSADILRVMGEALEVETVRPYGGNLLYLVLSNLAQNFDPAQSGDAAAPDYLRLLIEASDHWRATRHGQDHFAAAIARQPIS”: the protein production result is reported as “failed”.
As for “MDPKKADIIRLEALPQDLLGGIVAKVGATTAEDFHNCILVCKELGASANDKHVFKTLNLALLVKKPLSGTQTPSYYENMS”, the entry is “not failed”.
